Experimental data from US11655308B2, “HM-3 fusion protein and application thereof” (TASLY BIOPHARMACEUTICALS CO., LTD., priority 2017, dated 2023).
Several values for one entry are separate records, joined by “and”; a condition that tells them apart may be missing. Equal values may be shown once.

Assay: Pharmacokinetics after single subcutaneous injection (double-antibody sandwich ELISA)
Protocol: (1) 18 SD rats (half male and half female) were purchased and fed for one week.
(2) Rats were divided into 3 groups, half male and half female, and weight of rats were recorded respectively.
The blood was centrifuged at 12000 rpm/min to take 200 μL of supernatant, then the supernatant was diluted with PBS solution according to a ratio of 1:3, and finally placed in an EP tube and stored in a −80° C. refrigerator.
(4) Biological samples were measured by double-antibody sandwich ELISA.
(1) Coating, HM-3 monoclonal antibody was diluted with a coating buffer (CBS) in certain concentration, added to an ELISA plate and coated overnight.
(2) Plate washing, the coating buffer was discarded, and the plate was washed by PBST for 3 times, and then dried by patting.
(3) Sealing, a blocking buffer was added for sealing at 37.5° C., the plate washing process was repeated and the plate was dried by patting.
(4) Addition of samples to be measured, the samples to be measured were added to the ELISA plate with multiple wells, and then incubated at 37.5° C.; the plate washing process was repeated and the plate was dried by patting.
(5) Addition of a secondary antibody, the secondary antibody diluted proportionally was added for incubation at 37.5° C. The plate washing process was repeated and the plate was dried by patting.
(6) Addition of the enzyme-labeled secondary antibody for reaction, the HRP-labeled secondary antibody which was diluted by 5% skim milk powder solution according to certain proportion was added for incubation at 37.5° C. The plate washing process was repeated and the plate was dried by patting.
(7) Addition of a substrate, a TMB substrate in certain volume L was added for reaction in the dark.
(8) Termination of the reaction, a certain amount of stop buffer was added to terminate the reaction.
(9) Detection, read OD450 nm with a microplate reader.

mIgG4-Fc-(GGGGS)3-HM-3 [TSL-4]
Plasma concentration (4.17 mg/kg sc, 0.00 h, Mean): 0 µg/mL
Plasma concentration (4.17 mg/kg sc, 0.00 h, single rats No. 1-5): 0 µg/mL
Plasma concentration (4.17 mg/kg sc, 0.50 h, Mean): 0.0818 µg/mL
Plasma concentration (4.17 mg/kg sc, 0.50 h, single rats No. 1-5): 0.00626 µg/mL and 0.0985 µg/mL and 0.131 µg/mL and 0.0504 µg/mL and 0.122 µg/mL
Plasma concentration (4.17 mg/kg sc, 1.00 h, Mean): 0.135 µg/mL
Plasma concentration (4.17 mg/kg sc, 1.00 h, single rats No. 1-5): 0.0588 µg/mL and 0.162 µg/mL and 0.168 µg/mL and 0.136 µg/mL and 0.151 µg/mL
Plasma concentration (4.17 mg/kg sc, 3.00 h, Mean): 0.388 µg/mL
Plasma concentration (4.17 mg/kg sc, 3.00 h, single rats No. 1-5): 0.238 µg/mL and 0.382 µg/mL and 0.412 µg/mL and 0.338 µg/mL and 0.570 µg/mL
Plasma concentration (4.17 mg/kg sc, 5.00 h, Mean): 0.573 µg/mL
Plasma concentration (4.17 mg/kg sc, 5.00 h, single rats No. 1-5): 0.667 µg/mL and 0.482 µg/mL and 0.575 µg/mL and 0.374 µg/mL and 0.766 µg/mL
Plasma concentration (4.17 mg/kg sc, 6.00 h, Mean): 0.894 µg/mL
Plasma concentration (4.17 mg/kg sc, 6.00 h, single rats No. 1-5): 1.278 µg/mL and 0.699 µg/mL and 1.024 µg/mL and 0.491 µg/mL and 0.978 µg/mL
Plasma concentration (4.17 mg/kg sc, 7.00 h, Mean): 1.297 µg/mL
Plasma concentration (4.17 mg/kg sc, 7.00 h, single rats No. 1-5): 1.696 µg/mL and 0.903 µg/mL and 1.556 µg/mL and 0.914 µg/mL and 1.415 µg/mL
Plasma concentration (4.17 mg/kg sc, 8.00 h, Mean): 1.356 µg/mL
Plasma concentration (4.17 mg/kg sc, 8.00 h, single rats No. 1-5): 1.383 µg/mL and 1.584 µg/mL and 1.319 µg/mL and 1.407 µg/mL and 1.088 µg/mL
Plasma concentration (4.17 mg/kg sc, 10.00 h, Mean): 1.058 µg/mL
Plasma concentration (4.17 mg/kg sc, 10.00 h, single rats No. 1-5): 1.192 µg/mL and 1.305 µg/mL and 0.854 µg/mL and 0.960 µg/mL and 0.980 µg/mL
Plasma concentration (4.17 mg/kg sc, 12.00 h, Mean): 0.771 µg/mL
Plasma concentration (4.17 mg/kg sc, 12.00 h, single rats No. 1-5): 0.947 µg/mL and 0.964 µg/mL and 0.712 µg/mL and 0.363 µg/mL and 0.867 µg/mL
Plasma concentration (4.17 mg/kg sc, 16.00 h, Mean): 0.468 µg/mL
Plasma concentration (4.17 mg/kg sc, 16.00 h, single rats No. 1-5): 0.767 µg/mL and 0.682 µg/mL and 0.237 µg/mL and 0.183 µg/mL and 0.471 µg/mL
Plasma concentration (4.17 mg/kg sc, 20.00 h, Mean): 0.205 µg/mL
Plasma concentration (4.17 mg/kg sc, 20.00 h, single rats No. 1-5): 0.249 μg/mL and 0.252 μg/mL and 0.179 μg/mL and 0.172 μg/mL (2×)
Plasma concentration (4.17 mg/kg sc, 24.00 h, Mean): 0.100 µg/mL
Plasma concentration (4.17 mg/kg sc, 24.00 h, single rats No. 1-5): 0.0638 μg/mL and 0.0738 μg/mL and 0.0533 μg/mL and 0.155 μg/mL (2×)
Plasma concentration (4.17 mg/kg sc, 28.00 h, Mean): 0.0667 µg/mL
Plasma concentration (4.17 mg/kg sc, 28.00 h, single rats No. 1-5): 0.0454 μg/mL and 0.0406 μg/mL and 0.0381 μg/mL and 0.105 μg/mL (2×)
Plasma concentration (4.17 mg/kg sc, 41.00 h, Mean): 0.0545 µg/mL
Plasma concentration (4.17 mg/kg sc, 41.00 h, single rats No. 1-5): 0.0298 μg/mL and 0.0288 μg/mL and 0.0231 μg/mL and 0.0954 μg/mL (2×)
Plasma concentration (4.17 mg/kg sc, 53.00 h, Mean): 0.0366 µg/mL
Plasma concentration (4.17 mg/kg sc, 53.00 h, single rats No. 1-5): 0.0108 µg/mL and 0.0074 µg/mL and 0.0171 µg/mL and 0.0669 µg/mL and 0.0809 µg/mL
Plasma concentration (4.17 mg/kg sc, 65.00 h, Mean): 0.0233 µg/mL
Plasma concentration (4.17 mg/kg sc, 65.00 h, single rats No. 1-5): 0.008536 µg/mL and 0.003139 µg/mL and 0.0168 µg/mL and 0.0440 µg/mL and 0.044 µg/mL
Plasma concentration (4.17 mg/kg sc, 77.00 h, Mean): 0.0114 µg/mL
Plasma concentration (4.17 mg/kg sc, 77.00 h, single rats No. 1-5): 0.005846 µg/mL and 0.002666 µg/mL and 0.0125 µg/mL and 0.0181 µg/mL and 0.01811 µg/mL
AUC 0-77 (4.17 mg/kg single sc): 7055.774 ng·h/mL
AUC 0-∞ (4.17 mg/kg single sc): 9006.668 ± 3859.519 ng·h/mL
MRT 0-77 (4.17 mg/kg single sc): 14.880 h
MRT 0-∞ (4.17 mg/kg single sc): 17.330 h
Tmax (4.17 mg/kg single sc): 7.4 ± 0.55 h
ka (4.17 mg/kg single sc): 0.258
t½ka (absorption half-life) (4.17 mg/kg single sc): 2.265 h
t½ke (elimination half-life) (4.17 mg/kg single sc): 30.710 ± 3.100 h
α, ke (4.17 mg/kg single sc): 0.090
Plasma concentration (12.5 mg/kg sc, 0.50 h, Mean): 0.848 µg/mL
Plasma concentration (12.5 mg/kg sc, 0.50 h, single rats No. 1-5): 0.176 µg/mL and 0.741 µg/mL and 0.995 µg/mL and 0.598 µg/mL and 1.728 µg/mL
Plasma concentration (12.5 mg/kg sc, 1.00 h, Mean): 1.877 µg/mL
Plasma concentration (12.5 mg/kg sc, 1.00 h, single rats No. 1-5): 0.740 µg/mL and 1.435 µg/mL and 1.875 µg/mL and 1.153 µg/mL and 4.180 µg/mL
Plasma concentration (12.5 mg/kg sc, 3.00 h, Mean): 4.078 µg/mL
Plasma concentration (12.5 mg/kg sc, 3.00 h, single rats No. 1-5): 1.459 µg/mL and 2.970 µg/mL and 4.100 µg/mL and 2.070 µg/mL and 9.793 µg/mL
Plasma concentration (12.5 mg/kg sc, 5.00 h, Mean): 7.518 µg/mL
Plasma concentration (12.5 mg/kg sc, 5.00 h, single rats No. 1-5): 2.030 µg/mL and 5.512 µg/mL and 8.329 µg/mL and 6.748 µg/mL and 14.973 µg/mL
Plasma concentration (12.5 mg/kg sc, 6.00 h, Mean): 9.970 µg/mL
Plasma concentration (12.5 mg/kg sc, 6.00 h, single rats No. 1-5): 2.337 µg/mL and 7.869 µg/mL and 11.753 µg/mL and 9.720 µg/mL and 18.172 µg/mL
Plasma concentration (12.5 mg/kg sc, 7.00 h, Mean): 13.413 µg/mL
Plasma concentration (12.5 mg/kg sc, 7.00 h, single rats No. 1-5): 3.372 µg/mL and 8.202 µg/mL and 11.959 µg/mL and 7.582 µg/mL and 35.951 µg/mL
Plasma concentration (12.5 mg/kg sc, 8.00 h, Mean): 10.626 µg/mL
Plasma concentration (12.5 mg/kg sc, 8.00 h, single rats No. 1-5): 4.395 µg/mL and 6.684 µg/mL and 10.711 µg/mL and 6.343 µg/mL and 24.998 µg/mL
Plasma concentration (12.5 mg/kg sc, 10.00 h, Mean): 8.284 µg/mL
Plasma concentration (12.5 mg/kg sc, 10.00 h, single rats No. 1-5): 3.014 µg/mL and 5.271 µg/mL and 9.706 µg/mL and 6.000 µg/mL and 17.430 µg/mL
Plasma concentration (12.5 mg/kg sc, 12.00 h, Mean): 7.390 µg/mL
Plasma concentration (12.5 mg/kg sc, 12.00 h, single rats No. 1-5): 2.663 µg/mL and 4.448 µg/mL and 7.496 µg/mL and 5.562 µg/mL and 16.780 µg/mL
Plasma concentration (12.5 mg/kg sc, 16.00 h, Mean): 6.292 µg/mL
Plasma concentration (12.5 mg/kg sc, 16.00 h, single rats No. 1-5): 2.587 µg/mL and 3.719 µg/mL and 6.053 µg/mL and 4.976 µg/mL and 14.124 µg/mL
Plasma concentration (12.5 mg/kg sc, 20.00 h, Mean): 5.407 µg/mL
